Data on two proteins can be found in publication PMC8137920, “Self-association of MreC as a regulatory signal in bacterial cell wall elongation” (Nature Communications, 2021).

Data set [1] concerns the molecule itself. Briefly: AUC; sedimentation velocity (SV-AUC), 0.8 mg/ml protein, 25 mM CHES pH 9.0, 150 mM NaCl, 10 mM MgCl2, 62,000 g, 20 °C, absorbance at 280 nm, c(s) analysis with Sedfit.
Data set [2] deals with the molecule itself. Briefly: negative-staining electron microscopy; purified protein concentrated in 25 mM CHES pH 9.0, 150 mM NaCl, 10 mM MgCl2; mica-carbon flotation, 2% sodium silico tungstate pH 7.4.

B1: MreC from Pseudomonas aeruginosa, periplasmic form, residues 15-330 (domain or fragment, Pseudomonas aeruginosa PAO1, UniProt Q9HVU1 15-330, looked up)
chain: RFDYLEPVRSKLGMVLTPFYGLAEMPVRAWEGVRDQFSSRSELIAENERLKAESLLMQRRVQKLAALTEQNVRLRELLNSAALVDDKVLVSELIGVDPNPFTQRIMIDKGENDGVFVGQPVLDASGLMGQVVEVMPYTARVLLLTDTTHSIPVQVNRNGLRAIAVGTGNPERLELRYVADTADIKEGDLLVSSGLGQRFPAGYPVATVKEVIHDSGQPFAVVRAVPTAKMNRSRYVLLVFSDSRTPEQRANDAAEAQEEADKKAAAGAQAPQPAAQPAAAPSPATPAAQGAAQQPAAAPAPAPTQPAAPAANGGRR
notes: MreC, Pseudomonas aeruginosa PAO1, residues 15-330; lacks the first 14 amino acids (cytoplasmic residues and TM region); The results call it only 'MreCPa' (periplasmic form); also called MreCPa; MreCPa(15-330); not shown: GST, N-terminal, cleaved
As to B1, in data set [1], the binding result is listed as “binds”.

B2: MreC from Pseudomonas aeruginosa lacking the TM region and the first 21 residues of its N-terminal helix, residues 36-330 (domain or fragment, Pseudomonas aeruginosa PAO1, UniProt Q9HVU1 36-330, looked up)
chain: LAEMPVRAWEGVRDQFSSRSELIAENERLKAESLLMQRRVQKLAALTEQNVRLRELLNSAALVDDKVLVSELIGVDPNPFTQRIMIDKGENDGVFVGQPVLDASGLMGQVVEVMPYTARVLLLTDTTHSIPVQVNRNGLRAIAVGTGNPERLELRYVADTADIKEGDLLVSSGLGQRFPAGYPVATVKEVIHDSGQPFAVVRAVPTAKMNRSRYVLLVFSDSRTPEQRANDAAEAQEEADKKAAAGAQAPQPAAQPAAAPSPATPAAQGAAQQPAAAPAPAPTQPAAPAANGGRR
notes: MreC, Pseudomonas aeruginosa PAO1, residues 36-330; also called MreCPa(36-330); MreCPa; not shown: GST, N-terminal, cleaved
In the case of B2, the binding result in data set [2] is reported as “binds”.
